Test results from US20160347802A1 (MAX PLANCK GESELLSCHAFT ZUR FOERDERUNG DER WISSENSCHAFTEN E …, published 2016).

T1: human Netrin-4, AVEXIS protein (human, UniProt Q9HB63 19-628)
T1 construct: not shown: AVEXIS tag (bait or prey)
T1 sequence (looked up): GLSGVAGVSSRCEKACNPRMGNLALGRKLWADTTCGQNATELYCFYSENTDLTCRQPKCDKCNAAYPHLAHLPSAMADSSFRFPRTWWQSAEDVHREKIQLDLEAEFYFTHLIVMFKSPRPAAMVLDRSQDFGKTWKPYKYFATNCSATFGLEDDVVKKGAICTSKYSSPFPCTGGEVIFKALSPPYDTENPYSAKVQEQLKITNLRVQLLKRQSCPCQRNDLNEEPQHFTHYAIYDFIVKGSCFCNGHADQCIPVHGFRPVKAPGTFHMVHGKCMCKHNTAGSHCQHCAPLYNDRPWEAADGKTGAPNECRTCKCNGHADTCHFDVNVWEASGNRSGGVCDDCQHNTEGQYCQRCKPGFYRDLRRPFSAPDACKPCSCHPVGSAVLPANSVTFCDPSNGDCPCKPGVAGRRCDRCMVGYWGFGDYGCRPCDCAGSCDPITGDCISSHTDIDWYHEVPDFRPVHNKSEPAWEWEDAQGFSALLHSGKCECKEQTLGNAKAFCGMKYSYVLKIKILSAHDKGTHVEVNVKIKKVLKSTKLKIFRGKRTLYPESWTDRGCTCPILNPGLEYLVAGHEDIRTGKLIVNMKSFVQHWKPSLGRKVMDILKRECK

T2: human Netrin-G1, AVEXIS protein (human, UniProt Q9Y2I2 29-510)
T2 construct: not shown: AVEXIS tag (bait or prey)
T2 sequence (looked up): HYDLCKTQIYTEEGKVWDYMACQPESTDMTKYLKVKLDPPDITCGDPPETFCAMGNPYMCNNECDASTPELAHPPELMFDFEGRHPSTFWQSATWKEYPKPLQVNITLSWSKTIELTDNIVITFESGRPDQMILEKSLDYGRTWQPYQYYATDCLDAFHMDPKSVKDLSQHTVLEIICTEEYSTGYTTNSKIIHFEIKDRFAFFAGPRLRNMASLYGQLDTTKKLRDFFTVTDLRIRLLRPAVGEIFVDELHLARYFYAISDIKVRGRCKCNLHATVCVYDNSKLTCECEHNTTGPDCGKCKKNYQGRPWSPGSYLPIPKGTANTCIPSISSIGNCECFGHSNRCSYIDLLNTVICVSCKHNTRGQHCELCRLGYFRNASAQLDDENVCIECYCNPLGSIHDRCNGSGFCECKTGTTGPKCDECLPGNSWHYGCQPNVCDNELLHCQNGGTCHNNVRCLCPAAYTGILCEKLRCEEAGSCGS

T3: human Netrin-G2, AVEXIS protein (human, UniProt Q96CW9 18-507)
T3 construct: not shown: AVEXIS tag (bait or prey)
T3 sequence (looked up): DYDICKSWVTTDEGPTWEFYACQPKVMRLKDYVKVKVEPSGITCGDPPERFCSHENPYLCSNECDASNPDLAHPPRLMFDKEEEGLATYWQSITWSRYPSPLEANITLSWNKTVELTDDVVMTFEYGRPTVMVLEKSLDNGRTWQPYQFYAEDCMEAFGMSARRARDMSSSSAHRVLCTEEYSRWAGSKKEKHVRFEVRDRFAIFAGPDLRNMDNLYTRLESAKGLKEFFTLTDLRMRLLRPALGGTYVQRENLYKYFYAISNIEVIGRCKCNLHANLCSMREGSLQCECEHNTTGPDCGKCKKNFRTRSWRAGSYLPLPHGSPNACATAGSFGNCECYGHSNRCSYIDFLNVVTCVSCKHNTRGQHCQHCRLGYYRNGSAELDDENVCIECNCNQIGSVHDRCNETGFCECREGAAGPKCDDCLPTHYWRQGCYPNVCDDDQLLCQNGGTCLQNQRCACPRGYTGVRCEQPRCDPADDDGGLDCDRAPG

T4: human DRAXIN 21 amino acid Netrin binding fragment, AVEXIS prey or bait protein (human)
T4 construct: Tested in both bait and prey orientations; also called human 21 amino acid DRAXIN fragment; derived 21 amino acid peptide; not shown: AVEXIS tag (rat Cd4d3+4 and prey or bait module)
T4 peptide: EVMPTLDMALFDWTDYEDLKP

T5: zebrafish DraxinB, AVEXIS protein (zebrafish)
T5 chain: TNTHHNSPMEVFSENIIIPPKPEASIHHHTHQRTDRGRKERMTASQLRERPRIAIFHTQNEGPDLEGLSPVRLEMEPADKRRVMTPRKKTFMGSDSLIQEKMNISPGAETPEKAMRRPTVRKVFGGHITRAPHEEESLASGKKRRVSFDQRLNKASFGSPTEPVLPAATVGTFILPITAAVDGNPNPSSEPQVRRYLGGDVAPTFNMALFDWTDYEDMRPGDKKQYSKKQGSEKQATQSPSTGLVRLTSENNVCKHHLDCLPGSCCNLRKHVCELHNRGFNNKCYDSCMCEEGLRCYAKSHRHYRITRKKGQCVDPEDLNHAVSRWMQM

B1: human DRAXIN, AVEXIS prey or bait protein (ligand)
chain: GALAPGTPARNLPENHIDLPGPALWTPQASHHRRRGPGKKEWGPGLPSQAQDGAVVTATRQASRLPEAEGLLPEQSPAGLLQDKDLLLGLALPYPEKENRPPGWERTRKRSREHKRRRDRLRLHQGRALVRGPSSLMKKAELSEAQVLDAAMEESSTSLAPTMFFLTTFEAAPATEESLILPVTSLRPQQAQPRSDGEVMPTLDMALFDWTDYEDLKPDGWPSAKKKEKHRGKLSSDGNETSPAEGEPCDHHQDCLPGTCCDLREHLCTPHNRGLNNKCFDDCMCVEGLRCYAKFHRNRRVTRRKGRCVEPETANGDQGSFINV
notes: It was tested in both bait and prey orientations
B2: zebrafish DraxinA, AVEXIS prey or bait protein (ligand)
chain: SEISSDNFKQSLTPSTTTSKEHPETGLTGGRQQKRHWSGKERDSAGLFSQRHMDRLEDDGTSMEGLSPVRLEMGPGDTMKAEVHGEVRASAQMRQGSHPAEGELNRKGRRHSHRLLAEHRKHGGKKDKGRGKGDLSDPEPELDSLLKDLNAFEDGLNTSPPNYNSVPLNEVPSPLSPILVTTAIKGHPPTLPPASTKPQKSSQGRTQGEVMPTLDMTLFDWTDYEDMKPADSWPSNKRKDKRRSKNKSNGNTTTEAGIVEPCDHHLDCLSGSCCDLREFECKPHNRGLNNKCFDDCMCEEGLRCYAKFHRKRRVTRRRGRCVDPESVNSNQGAFITV
notes: Prey and bait forms of the same protein are kept as one molecule; Preys are pentameric except in the monomeric-prey experiments; also called DraxinA prey protein

Assays:
[1] = molecular target: T1, human Netrin-4, AVEXIS protein; assay: AVEXIS, prey NTN4 on bait DRAXIN
Source text: (§1) The Matn4-bait served as an internal prey-protein control and was used for normalization of the A486 nm values; conditioned medium (CM) serves as negative control; n=3.

[2] = molecular target: T6, biotinylated recombinant human UNC5B (human, UniProt Q8IZJ1 27-377); assay: AVEXIS, prey DRAXIN on bait UNC5B
T6 construct: Made in HEK293-6E and immobilised on an SA chip
Source text: as §1

[3] = molecular target: T2, human Netrin-G1, AVEXIS protein; assay: AVEXIS, prey NTNG1 on bait DRAXIN
Source text: as §1

[4] = molecular target: T3, human Netrin-G2, AVEXIS protein; assay: AVEXIS, prey NTNG2 on bait DRAXIN
Source text: as §1

[5] = molecular target: T7, human Netrin1, recombinant AVEXIS protein (biotinylated when immobilised) (human, UniProt O95631 25-604); assay: AVEXIS, prey on bait NTN1; dark = Binding
T7 construct: also called NTN1
Source text: as §1

[6] = molecular target: T1, human Netrin-4, AVEXIS protein; assay: AVEXIS, prey on bait NTN4; white = No binding
Source text: as §1

[7] = molecular target: T2, human Netrin-G1, AVEXIS protein; assay: AVEXIS, prey on bait NTNG1; white = No binding
Source text: as §1

[8] = molecular target: T3, human Netrin-G2, AVEXIS protein; assay: AVEXIS, prey on bait NTNG2; white = No binding
Source text: as §1

[9] = molecular target: T6, biotinylated recombinant human UNC5B; assay: AVEXIS, prey on bait UNC5B; white = No binding
Source text: as §1

[10] = molecular target: T4, human DRAXIN 21 amino acid Netrin …; assay: AVEXIS, prey on bait DRAXIN 21aa; white = No binding
Source text: as §1

[11] = molecular target: B2; assay: AVEXIS, prey on bait zDraxinA, lower value; white = No binding
[12] = molecular target: B2; assay: AVEXIS, prey on bait zDraxinA, upper value; white = No binding
[13] = molecular target: T5, zebrafish DraxinB, AVEXIS protein; assay: AVEXIS, prey on bait zDraxinB, lower value; white = No binding
[14] = molecular target: T5, zebrafish DraxinB, AVEXIS protein; assay: AVEXIS, prey on bait zDraxinB, upper value; white = No binding
[15] = molecular target: T8, Matn4 ECD, mono-biotinylated bait protein (positive control); assay: AVEXIS, prey on bait Matn4 (+), positive control for the prey; dark = Binding
T8 construct: extracellular domain; also called Matn4-bait
Source text: as §1

[16] = molecular target: B1; assay: AVEXIS, pentameric prey human DRAXIN on bait zDraxinA
[17] = molecular target: the molecule itself; assay: AVEXIS, pentameric prey zebrafish DraxinA on bait zDraxinA
[18] = molecular target: T5, zebrafish DraxinB, AVEXIS protein; assay: AVEXIS, pentameric prey zebrafish DraxinA on bait zDraxinB
[19] = molecular target: the molecule itself; assay: AVEXIS, prey on bait zDraxinA, lower value; white = No binding
[20] = molecular target: the molecule itself; assay: AVEXIS, prey on bait zDraxinA, upper value; white = No binding

binding result [1] | binding result [2] | binding result [3] | binding result [4] | A486nm [5] | A486nm [6] | A486nm [7] | A486nm [8] | A486nm [9] | A486nm [10] | A486nm [11] | A486nm [12] | A486nm [13] | A486nm [14] | A486nm [15] | binding result [16] | binding result [18] | Binder | binding result [17] | A486nm [19] | A486nm [20]
no binding | no binding | no binding | no binding | 0.361 | 0.076 | 0.077 | 0.072 | 0.078 | 0.063 | 0.06 | 0.06 | 0.058 | 0.056 | 0.213 | – | – | B1 | – | – | –
– | – | – | – | – | – | – | – | – | – | – | – | 0.059 | 0.057 | – | no binding | no binding | B2 | no binding | 0.06 | 0.062
